Patent US20060121465A1, “Sgk and nedd used as diagnostic and therapeutic targets” (priority 2002, published 2006)

T1: Sglt1 (Homo sapiens, UniProt P13866)
T1 construct: expressed in transfected cells; host or cells: Xenopus laevis oocytes injected with in vitro synthesized cRNA
T1 sequence (P13866 1-664): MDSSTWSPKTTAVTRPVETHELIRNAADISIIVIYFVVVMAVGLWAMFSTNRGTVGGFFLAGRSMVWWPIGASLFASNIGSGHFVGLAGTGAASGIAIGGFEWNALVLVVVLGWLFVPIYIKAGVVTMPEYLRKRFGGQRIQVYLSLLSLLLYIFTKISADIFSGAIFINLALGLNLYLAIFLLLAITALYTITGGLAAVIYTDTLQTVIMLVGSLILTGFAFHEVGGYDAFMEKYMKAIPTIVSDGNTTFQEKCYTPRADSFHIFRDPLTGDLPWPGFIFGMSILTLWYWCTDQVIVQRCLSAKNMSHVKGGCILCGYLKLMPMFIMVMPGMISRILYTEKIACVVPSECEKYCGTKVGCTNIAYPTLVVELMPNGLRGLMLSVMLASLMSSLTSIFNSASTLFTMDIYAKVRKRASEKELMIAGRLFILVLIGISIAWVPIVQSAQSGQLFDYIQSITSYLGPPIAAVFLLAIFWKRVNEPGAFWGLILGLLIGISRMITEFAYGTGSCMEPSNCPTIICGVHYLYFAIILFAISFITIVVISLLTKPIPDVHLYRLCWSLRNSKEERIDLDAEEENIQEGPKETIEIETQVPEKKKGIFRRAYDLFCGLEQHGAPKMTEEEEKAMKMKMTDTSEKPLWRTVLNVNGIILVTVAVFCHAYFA


Molecular target: T1, Sglt1
Experiment: Two-electrode voltage clamp of glucose-induced currents in Xenopus laevis oocytes expressing Sglt1
Type: cell-based
Conditions: for effect on currents induced by glucose (in words): oocytes expressing Sglt1; for stimulation of glucose transport by additional coexpression: further series of experiments (FIG. 5)
Source text: cRNAs encoding wild-type Sgk1 [Waldegger S, Barth P, Raber G, Lang F: Cloning and characterization of a putative human serine/threonine protein kinase transcriptionally modified during anisotonic and isotonic alterations of cell volume. […] Biochem J. 1999; 339: 319-28], wild-type Sgk3 and PKB [Kobayashi T, Deak M, Morrice N, Cohen P. Characterization of the structure and regulation of two novel isoforms of serum- and glucocorticoid-induced protein kinase. Biochem J. 1999; 334: 189-97], consitutively active ^T308D,S473DPKB [Alessi D R, Cohen P. Mechanism of activation and function of protein kinase B. Curr. Opin Genet Dev. 1998; 8: 55-62], wild-type Nedd4-2 [Debonneville C, Flores S Y, Kamynina E, Plant P J, Tauxe C, Thomas M A, Munster C, Chraibi A, Pratt J H, Horisberger J D, Pearce D, Loffing J, Staub O. Phosphorylation of Nedd4-2 by Sgk1 regulates epithelial Na(+) channel cell surface expression. EMBO J. 2001; 20: 7052-7059] and wild-type Sglt1 [Hediger M A, Coady M J, Ikeda T S, Wright E M. Expression cloning and cDNA sequencing of the Na^+/glucose co-transporter. Nature. 1987; 330: 379-381] were synthesized in vitro [Wagner C A, Friedrich B, Setiawan I, Lang F, Bröer S: The use of Xenopus laevis oocytes for the functional characterization of heterologously expressed membrane proteins. Cell Physiol Biochem 2000; 10: 1-12]. Dissection of the Xenopus laevis ovaries, and collection and treatment of the oocytes, have already been described in detail [Wagner C A, Friedrich B, Setiawan I, Lang F, Broer S: The use of Xenopus laevis oocytes for the functional characterization of heterologously expressed membrane proteins. Cell Physiol Biochem 2000; 10: 1-12]. The oocytes were injected with 5 ng of human sglt1, 7.5 ng of human sgk1, ^K127Nsgk1, ^S422Dsgk1, sgk3, PKB or ^T308D,S473DPKB, and/or with 5 ng of Xenopus nedd4-2. Control oocytes were injected with water. Electrophysiological experiments were carried out at room temperature for 3 days after the respective cRNAs had been injected. The currents which were induced by the extracellular administration of 20 mM or 5 mM glucose were measured using a two-electrode voltage clamp [Wagner C A, Friedrich B, Setiawan I, Lang F, Broer S: The use of Xenopus laevis oocytes for the functional characterization of heterologously expressed membrane proteins. Cell Physiol Biochem 2000; 10: 1-12] and taken as a measure of the glucose transport. The data were filtered at 10 Hz and analyzed using a MacLab Digital to Analog Converter and corresponding software (AD Instruments, Castle Hill, Australia). The control bath solution (ND 96) contained 96 mM NaCl, 2 mM KCl, 1.8 mM CaCl2, 1 mM MgCl2 and 5 mM HEPES, pH 7.4. All the substances were used at the stated concentrations. The final solutions were titrated with HCl or NaOH to the stated pH or pH 7.4. The flow rate of the superfusion solution was 20 ml/min and achieved complete change of solution within 10 s.
For the calculations, the data were quoted as arithmetic means±SEM. n is the number of oocytes investigated. All the experiments were carried out in at least three different groups of oocytes. Qualitatively similar data were obtained in all the repeats. The results were tested for significant differences using Student's t test. Only results giving P<0.05 were made use of as being statistically significant.

[1] = 20 mM glucose, coexpressed with Sglt1, increase vs oocytes expressing Sglt1 on its own
[2] = 20 mM glucose, coexpressed with Sglt1 and Nedd4-2
[3] = coexpressed with Sglt1 and Nedd4-2
[4] = further series of experiments (FIG. 5, procedure as in FIG. 4), coexpressed with Sglt1
[5] = 5 mM glucose, coexpressed with Sglt1 and Nedd4-2
[6] = 5 mM glucose, coexpressed with Sglt1 (FIG. 4)

| glucose-induced current increased by coexpression [1] [%] | glucose-induced current higher than in oocytes expressing Sglt1 on its own [2] [%] | stimulation of glucose transport by additional coexpression [3] | glucose-induced current increased by coexpression [4] | Molecule | effect on currents induced by glucose (in words) (20 mM glucose, figure legends) | further results |
| --- | --- | --- | --- | --- | --- | --- |
| 117.4±15.8 | 106.5±18.2 | – | – | ^T308D,S473DPKB: constitutively active protein kinase B mutant, expressed from injected cRNA | stimulated the currents and reversed the effect of Nedd4-2 | – |
| – | – | 107±20% | 101±18% | PKB: wild-type protein kinase B, expressed from injected cRNA | – | – |
| 81.3±19.0 | 34.8±11.8 | – | – | Sgk1: wild-type serum- and glucocorticoid-dependent kinase 1, expressed from injected human sgk1 cRNA (protein, UniProt O00141 1-431, looked up) Serine/threonine-protein …: MTVKTEAAKGTLTYSRMRGMVAILIAFMKQRRMGLNDFIQKIANNSYACKHPEVQSILKISQPQEPELMNANPSPPPSPSQQINLGPSSNPHAKPSDFHFLKVIGKGSFGKVLLARHKAEEVFYAVKVLQKKAILKKKEEKHIMSERNVLLKNVKHPFLVGLHFSFQTADKLYFVLDYINGGELFYHLQRERCFLEPRARFYAAEIASALGYLHSLNIVYRDLKPENILLDSQGHIVLTDFGLCKENIEHNSTTSTFCGTPEYLAPEVLHKQPYDRTVDWWCLGAVLYEMLYGLPPFYSRNTAEMYDNILNKPLQLKPNITNSARHLLEGLLQKDRTKRLGAKDDFMEIKSHVFFSLINWDDLINKKITPPFNPNVSGPNDLRHFDPEFTEEPVPNSIGKSPDSVLVTASVKEAAEAFLGFSYAPPTDSFL | stimulated the currents and reversed the effect of Nedd4-2 | glucose-induced current more than in oocytes injected with Sglt1 and Nedd4-2 mRNA [5]: 126±23%; glucose-induced current more than in oocytes only injected with Sglt1 [5]: 61±21%; glucose-induced current (5 mM glucose, coexpressed with Sglt1 and Nedd4-2 (FIG. 4)): 60.5±9.9 nA |
| – | – | – | – | ^K127NSgk1: inactive Sgk1 mutant, expressed from injected cRNA (protein, UniProt O00141 1-431, looked up, variant K127N) Serine/threonine-protein …: MTVKTEAAKGTLTYSRMRGMVAILIAFMKQRRMGLNDFIQKIANNSYACKHPEVQSILKISQPQEPELMNANPSPPPSPSQQINLGPSSNPHAKPSDFHFLKVIGKGSFGKVLLARHKAEEVFYAVNVLQKKAILKKKEEKHIMSERNVLLKNVKHPFLVGLHFSFQTADKLYFVLDYINGGELFYHLQRERCFLEPRARFYAAEIASALGYLHSLNIVYRDLKPENILLDSQGHIVLTDFGLCKENIEHNSTTSTFCGTPEYLAPEVLHKQPYDRTVDWWCLGAVLYEMLYGLPPFYSRNTAEMYDNILNKPLQLKPNITNSARHLLEGLLQKDRTKRLGAKDDFMEIKSHVFFSLINWDDLINKKITPPFNPNVSGPNDLRHFDPEFTEEPVPNSIGKSPDSVLVTASVKEAAEAFLGFSYAPPTDSFL | – | change of substrate-induced current (20 mM glucose, coexpressed with Sglt1, signed change vs Sglt1 alone): −2.0±5.3%; glucose-induced current lower than in oocytes expressing Sglt1 on its own [2]: 54.9±9.7% |
| 72.4±9.1 | 59.2±19.8 | 48±11% | 55±12% | ^S422DSgk1: constitutively active Sgk1 mutant (serine 422 to aspartate), expressed from injected cRNA (protein, UniProt O00141 1-431, looked up, variant S422D) Serine/threonine-protein …: MTVKTEAAKGTLTYSRMRGMVAILIAFMKQRRMGLNDFIQKIANNSYACKHPEVQSILKISQPQEPELMNANPSPPPSPSQQINLGPSSNPHAKPSDFHFLKVIGKGSFGKVLLARHKAEEVFYAVKVLQKKAILKKKEEKHIMSERNVLLKNVKHPFLVGLHFSFQTADKLYFVLDYINGGELFYHLQRERCFLEPRARFYAAEIASALGYLHSLNIVYRDLKPENILLDSQGHIVLTDFGLCKENIEHNSTTSTFCGTPEYLAPEVLHKQPYDRTVDWWCLGAVLYEMLYGLPPFYSRNTAEMYDNILNKPLQLKPNITNSARHLLEGLLQKDRTKRLGAKDDFMEIKSHVFFSLINWDDLINKKITPPFNPNVSGPNDLRHFDPEFTEEPVPNSIGKSPDSVLVTASVKEAAEAFLGFDYAPPTDSFL | stimulated the currents and reversed the effect of Nedd4-2 | glucose-induced current (Iglc) [6]: 65.4±10.6 nA; increase of Iglc by coexpression [6]: 77±23%; effect on currents induced by glucose (in words) (5 mmol glucose, FIG. 4 legend): significantly increased |
| – | – | no significant effect | no statistically significant effect | Sgk2: isoform of Sgk, coexpressed in oocytes (protein, UniProt Q9HBY8 1-367, looked up) Serine/threonine-protein …: MNSSPAGTPSPQPSRANGNINLGPSANPNAQPTDFDFLKVIGKGNYGKVLLAKRKSDGAFYAVKVLQKKSILKKKEQSHIMAERSVLLKNVRHPFLVGLRYSFQTPEKLYFVLDYVNGGELFFHLQRERRFLEPRARFYAAEVASAIGYLHSLNIIYRDLKPENILLDCQGHVVLTDFGLCKEGVEPEDTTSTFCGTPEYLAPEVLRKEPYDRAVDWWCLGAVLYEMLHGLPPFYSQDVSQMYENILHQPLQIPGGRTVAACDLLQSLLHKDQRQRLGSKADFLEIKNHVFFSPINWDDLYHKRLTPPFNPNVTGPADLKHFDPEFTQEAVSKSIGCTPDTVASSSGASSAFLGFSYAPEDDDILDC | – | – |
| 123.6±15.0 | 112.4±19.4 | 114±26% | 117±16% | Sgk3: wild-type Sgk isoform 3, expressed from injected cRNA (protein, UniProt Q96BR1 1-496, looked up) Serine/threonine-protein …: MQRDHTMDYKESCPSVSIPSSDEHREKKKRFTVYKVLVSVGRSEWFVFRRYAEFDKLYNTLKKQFPAMALKIPAKRIFGDNFDPDFIKQRRAGLNEFIQNLVRYPELYNHPDVRAFLQMDSPKHQSDPSEDEDERSSQKLHSTSQNINLGPSGNPHAKPTDFDFLKVIGKGSFGKVLLAKRKLDGKFYAVKVLQKKIVLNRKEQKHIMAERNVLLKNVKHPFLVGLHYSFQTTEKLYFVLDFVNGGELFFHLQRERSFPEHRARFYAAEIASALGYLHSIKIVYRDLKPENILLDSVGHVVLTDFGLCKEGIAISDTTTTFCGTPEYLAPEVIRKQPYDNTVDWWCLGAVLYEMLYGLPPFYCRDVAEMYDNILHKPLSLRPGVSLTAWSILEELLEKDRQNRLGAKEDFLEIQNHPFFESLSWADLVQKKIPPPFNPNVAGPDDIRNFDTAFTEETVPYSVCVSSDYSIVNASVLEADDAFVGFSYAPPSEDLFL | stimulated the currents and reversed the effect of Nedd4-2 | – |
